Measured values from article PMC9039736, “Identifying novel SMYD3 interactors on the trail of cancer hallmarks” (Computational and Structural Biotechnology Journal, 2022).

B1: HIS-SMYD3-FL (natural protein, human, UniProt Q9H7B4 1-428, looked up)
chain: MEPLKVEKFATAKRGNGLRAVTPLRPGELLFRSDPLAYTVCKGSRGVVCDRCLLGKEKLMRCSQCRVAKYCSAKCQKKAWPDHKRECKCLKSCKPRYPPDSVRLLGRVVFKLMDGAPSESEKLYSFYDLESNINKLTEDKKEGLRQLVMTFQHFMREEIQDASQLPPAFDLFEAFAKVICNSFTICNAEMQEVGVGLYPSISLLNHSCDPNCSIVFNGPHLLLRAVRDIEVGEELTICYLDMLMTSEERRKQLRDQYCFECDCFRCQTQDKDADMLTGDEQVWKEVQESLKKIEELKAHWKWEQVLAMCQAIISSNSERLPDINIYQLKVLDCAMDACINLGLLEEALFYGTRTMEPYRIFFPGSHPVRGVQVMKVGKLQLHQGMFPQAMKNLRLAFDIMRVTHGREHSLIEDLILLLEECDANIRAS
notes: SMYD3, human, full length (constructs count to residue 428); also called HIS-SMYD3-FL (full length); source: recombinant human protein
B2: HIS-SMYD3-C-term(236–428) (domain or fragment, human, UniProt Q9H7B4 236-428, looked up)
chain: TICYLDMLMTSEERRKQLRDQYCFECDCFRCQTQDKDADMLTGDEQVWKEVQESLKKIEELKAHWKWEQVLAMCQAIISSNSERLPDINIYQLKVLDCAMDACINLGLLEEALFYGTRTMEPYRIFFPGSHPVRGVQVMKVGKLQLHQGMFPQAMKNLRLAFDIMRVTHGREHSLIEDLILLLEECDANIRAS
notes: SMYD3, human, residues 236-428, comprises the CT domain; source: recombinant human protein
B3: HIS-SMYD3-N-term(1–235) (domain or fragment, human, UniProt Q9H7B4 1-235, looked up)
chain: MEPLKVEKFATAKRGNGLRAVTPLRPGELLFRSDPLAYTVCKGSRGVVCDRCLLGKEKLMRCSQCRVAKYCSAKCQKKAWPDHKRECKCLKSCKPRYPPDSVRLLGRVVFKLMDGAPSESEKLYSFYDLESNINKLTEDKKEGLRQLVMTFQHFMREEIQDASQLPPAFDLFEAFAKVICNSFTICNAEMQEVGVGLYPSISLLNHSCDPNCSIVFNGPHLLLRAVRDIEVGEEL
notes: SMYD3, human, residues 1-235, comprises the SET domain; source: recombinant human protein

Target: T1, GST-BRCA2(1338–1781) (human, UniProt P51587 1338-1781)
T1 construct: one of nine GST fusion proteins spanning the entire coding region of BRCA2; source: recombinant GST fusion protein
T1 sequence (P51587 1338-1781): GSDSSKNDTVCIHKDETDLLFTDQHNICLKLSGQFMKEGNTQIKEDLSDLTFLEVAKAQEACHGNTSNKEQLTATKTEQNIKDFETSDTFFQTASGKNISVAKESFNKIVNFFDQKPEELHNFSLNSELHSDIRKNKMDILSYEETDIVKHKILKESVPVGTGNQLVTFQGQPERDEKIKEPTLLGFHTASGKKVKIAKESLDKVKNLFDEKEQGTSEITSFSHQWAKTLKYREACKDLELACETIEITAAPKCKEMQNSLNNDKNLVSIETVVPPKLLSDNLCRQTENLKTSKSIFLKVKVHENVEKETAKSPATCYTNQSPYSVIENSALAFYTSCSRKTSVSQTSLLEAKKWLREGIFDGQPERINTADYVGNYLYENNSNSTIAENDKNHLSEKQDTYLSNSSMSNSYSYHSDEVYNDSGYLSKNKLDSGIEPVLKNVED
Assay: pull-down; 200 ng HIS-SMYD3 construct with 500 ng GST-BRCA2(1338-1781), 1 h at 4 °C; precipitated by Dynabeads HIS-Tag Isolation and Pulldown; washed in buffer A (20 mM Tris-HCl pH 8, 150 mM KCl, 5 mM MgCl2, 0.2 mM EDTA, 10% glycerol, 0.1% NP-40, 1 mM DTT); immunoblot anti-GST and anti-HIS
Conditions: both partners purified

Binding result, binds:
B1
B2
B3
